Assay results taken from the supplement of paper PMC7877785.
± gives the uncertainty stated by the source.

Experiment: self-splicing fitness, log relative to wild type (ln ratio); higher = more splicing; Tetrahymena group I intron in knt gene, E. coli kanamycin selection, DiMSum; sequences stand for … in CUCUCU…GGAGGGAAAAGUUAUCAGGCAUGCACCUGGUAGCUAGUCUUUAAACCAAUAGAUUGCAUCGGUUUAAAAGGCAAGACCGUCAAAUUGCGGGAAAGGGGUCAACAGCCGUUCAGUACCAAGUCUCAGGGGAAACUUUGAGAUGGCCUUGCAAAGGGUAUGGUAAUAAGCUGACGGACAUGGUCCUAACCACGCAGCCAAGUCCUAAGUCAACAGAUCUUCUGUUGAUAUGGAUGCAGUUCACAGACUAAAUGUCGGUCGGGGAAGAUGUAUUCUUCUCAUAAGAUAUAGUCGGACCUCUCCUUAAUGGGAGCUAGCGGAUGAAGUGAUGCAACACUGGAGCCGCUGGGAACUAAUUUGUAUGCGAAAGUAUAUUGAUUAGUUUUGGAGUACUCGUGGUCG
Method in brief: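 Library with all eight P1ex-region intron nucleotides randomised, intron inside the knt kanamycin-resistance gene on pET-22b(+), in E. coli BL21(DE3). Cells grew overnight at 37°C or 30°C on LB agar with or without 25 μg/mL kanamycin (plus 100 μg/mL carbenicillin, 50 μM IPTG, 0.2% rhamnose), in six replicate transformations. Pooled colonies were amplicon-sequenced on Illumina HiSeq 2500. DiMSum fitness is the error-weighted combination of wild-type-normalised replicate fold changes, kanamycin versus none.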

Row | Sequence | self-splicing fitness (ln) (30 °C) | self-splicing fitness (ln) (37 °C)
1 | UACCAGCAAUAUUACGCUUA | -0.566 ± 0.056 | -0.478 ± 0.07
2 | UACCAGCAAUAUUACGCUUC | -3.17 ± 0.23 | -2.3 ± 0.24
3 | UACCAGCAAUAUUACGGAAA | -0.915 ± 0.073 | -0.747 ± 0.077
4 | UACCAGCAAUAUUACGGAGG | -2.34 ± 0.12 | -0.914 ± 0.12
5 | UACCAGCAAUAUUACGGCAA | -0.203 ± 0.067 | 0.462 ± 0.094
6 | UACCAGCAAUAUUACGGCAC | -2.09 ± 0.066 | -1.05 ± 0.067
7 | UACCAGCAAUAUUACGGGAG | -1.64 ± 0.061 | -1.01 ± 0.071
8 | UACCAGCAAUAUUACGGUAA | -1.77 ± 0.076 | -0.857 ± 0.074
9 | UACCAGCAAUAUUACGGUAC | -3.72 ± 0.22 | -2.04 ± 0.16
10 | UACCAGCAAUAUUACGGUGG | -3.17 ± 0.11 | -1.87 ± 0.087
11 | UACCAGCAAUAUUACGUAGU | -2.96 ± 0.099 | -1.65 ± 0.1
12 | UACCAGCAAUAUUACGUAUU | -2.16 ± 0.1 | -2.6 ± 0.18
13 | UACCAGCAAUAUUACGUCGC | -2.97 ± 0.17 | -1.88 ± 0.2
14 | UACCAGCAAUAUUACGUGCU | -4.3 ± 0.19 | -2.93 ± 0.17
15 | UACCAGCAAUAUUACGUUGA | -1.61 ± 0.049 | -0.796 ± 0.062
16 | UACCAGCAAUAUUACGUUGG | -3.21 ± 0.12 | -2.85 ± 0.14
17 | UACGAGCAAUAUUACGAAAG | -2.75 ± 0.42 | -1.29 ± 0.45
18 | UACGAGCAAUAUUACGAACU | -3.46 ± 0.48 | -2.4 ± 0.24
19 | UACGAGCAAUAUUACGACGC | -3 ± 0.27 | -2.09 ± 0.35
20 | UACGAGCAAUAUUACGACUC | -2.51 ± 0.21 | -2.31 ± 0.36
21 | UACGAGCAAUAUUACGAGCA | -2.48 ± 0.16 | -0.109 ± 0.12
22 | UACGAGCAAUAUUACGAGGA | -3.51 ± 0.26 | -2.48 ± 0.22
23 | UACGAGCAAUAUUACGAUUC | -3.01 ± 0.28 | -2.83 ± 0.3
24 | UACGAGCAAUAUUACGCCAG | -3.79 ± 0.3 | -2.88 ± 0.3

Row | Sequence | self-splicing fitness (ln) (30 °C) | self-splicing fitness (ln) (37 °C)
25 | UACGAGCAAUAUUACGCCCA | -2.24 ± 0.27 | -1.02 ± 0.29
26 | UACGAGCAAUAUUACGCCGU | -2.69 ± 0.46 | -2.21 ± 0.29
27 | UACGAGCAAUAUUACGCGCU | – | -3.38 ± 0.31
28 | UACGAGCAAUAUUACGCUCU | -1.85 ± 0.21 | –
29 | UACGAGCAAUAUUACGGGAU | -2.49 ± 0.14 | -2.74 ± 0.27
30 | UACGAGCAAUAUUACGUAUC | -2.79 ± 0.16 | -2.99 ± 0.27
31 | UACGAGCAAUAUUACGUCUC | -3.24 ± 0.29 | -2.56 ± 0.4
32 | UACGAGCAAUAUUACGUCUU | -3.95 ± 0.33 | -3.41 ± 0.24
33 | UACUAGCAAUAUUACGACAA | -0.443 ± 0.12 | -0.256 ± 0.11
34 | UACUAGCAAUAUUACGACAU | -1.645 ± 0.014 | -0.715 ± 0.033
35 | UACUAGCAAUAUUACGAGAG | -2.94 ± 0.13 | -2.43 ± 0.18
36 | UACUAGCAAUAUUACGAGGA | -3.18 ± 0.2 | -1.54 ± 0.13
37 | UACUAGCAAUAUUACGCCAG | -0.0426 ± 0.17 | -1.03 ± 0.29
38 | UACUAGCAAUAUUACGCCCU | -0.435 ± 0.14 | -0.784 ± 0.15
39 | UACUAGCAAUAUUACGCGAA | -1.97 ± 0.2 | -1.18 ± 0.14
40 | UACUAGCAAUAUUACGCGCU | -3.19 ± 0.18 | -1.8 ± 0.15
41 | UACUAGCAAUAUUACGCUGC | – | -3.01 ± 0.43
42 | UACUAGCAAUAUUACGCUGU | -4.54 ± 0.28 | -3.27 ± 0.33
43 | UACUAGCAAUAUUACGGAAG | -3.07 ± 0.26 | -2.91 ± 0.43
44 | UACUAGCAAUAUUACGGACA | -0.57 ± 0.13 | -0.47 ± 0.16
45 | UACUAGCAAUAUUACGGAGC | -1.89 ± 0.25 | -2.56 ± 0.3
46 | UACUAGCAAUAUUACGGCCA | -0.179 ± 0.15 | 0.376 ± 0.16
47 | UACUAGCAAUAUUACGGGAC | -3.54 ± 0.17 | -2.72 ± 0.16
48 | UACUAGCAAUAUUACGGGGU | -4.05 ± 0.19 | -2.71 ± 0.2

Row | Sequence | self-splicing fitness (ln) (30 °C) | self-splicing fitness (ln) (37 °C)
49 | UACUAGCAAUAUUACGGUAG | -1.92 ± 0.11 | -1.09 ± 0.12
50 | UACUAGCAAUAUUACGUACU | -2.51 ± 0.19 | -0.347 ± 0.13
51 | UACUAGCAAUAUUACGUAGC | -2.83 ± 0.17 | -2.19 ± 0.27
52 | UACUAGCAAUAUUACGUCAA | -1.32 ± 0.21 | -1.25 ± 0.17
53 | UACUAGCAAUAUUACGUCGG | -2.29 ± 0.15 | -2.18 ± 0.18
54 | UACUAGCAAUAUUACGUCUA | -0.655 ± 0.12 | -0.565 ± 0.11
55 | UACUAGCAAUAUUACGUGAU | -3.07 ± 0.11 | -1.17 ± 0.12
56 | UACUAGCAAUAUUACGUGUG | -1.37 ± 0.067 | -0.828 ± 0.072
57 | UACUAGCAAUAUUACGUUUU | -3.49 ± 0.19 | -1.82 ± 0.15
58 | UAGAAGCAAUAUUACGAAAA | -2.69 ± 0.2 | -2.02 ± 0.17
59 | UAGAAGCAAUAUUACGAACU | -1.79 ± 0.14 | 0.0205 ± 0.13
60 | UAGAAGCAAUAUUACGAAGA | -1.77 ± 0.18 | -0.969 ± 0.17
61 | UAGAAGCAAUAUUACGAGUU | – | -2.07 ± 0.33
62 | UAGAAGCAAUAUUACGAUAC | -2.87 ± 0.32 | -2.46 ± 0.27
63 | UAGAAGCAAUAUUACGAUCG | 0.151 ± 0.093 | 0.149 ± 0.11
64 | UAGAAGCAAUAUUACGAUGA | -0.692 ± 0.13 | -0.446 ± 0.1
65 | UAGAAGCAAUAUUACGAUUC | -2.82 ± 0.17 | -2.06 ± 0.21
66 | UAGAAGCAAUAUUACGAUUU | -0.745 ± 0.067 | -1.11 ± 0.095
67 | UAGAAGCAAUAUUACGCACU | -0.642 ± 0.15 | -0.846 ± 0.17
68 | UAGAAGCAAUAUUACGCAUG | -1.12 ± 0.1 | 0.583 ± 0.12
69 | UAGAAGCAAUAUUACGCCAG | -1.3 ± 0.16 | -0.617 ± 0.21
70 | UAGAAGCAAUAUUACGCCGA | -1.47 ± 0.32 | -1 ± 0.25
71 | UAGAAGCAAUAUUACGGCUA | -0.274 ± 0.12 | -0.13 ± 0.16
72 | UAGAAGCAAUAUUACGGUUG | -1.79 ± 0.089 | -0.948 ± 0.11

Row | Sequence | self-splicing fitness (ln) (30 °C) | self-splicing fitness (ln) (37 °C)
73 | UAGAAGCAAUAUUACGUAUC | -3.43 ± 0.28 | -2.01 ± 0.15
74 | UAGAAGCAAUAUUACGUCUA | -1.81 ± 0.16 | -0.539 ± 0.14
75 | UAGAAGCAAUAUUACGUGGC | -3.12 ± 0.21 | -3.09 ± 0.25
76 | UAGAAGCAAUAUUACGUUCG | -0.157 ± 0.067 | 0.264 ± 0.088
77 | UAGAAGCAAUAUUACGUUUC | -2.28 ± 0.16 | -0.293 ± 0.17
78 | UAGCAGCAAUAUUACGAACG | -0.486 ± 0.06 | 0.327 ± 0.085
79 | UAGCAGCAAUAUUACGAGAC | -1.84 ± 0.24 | -3.06 ± 0.32
80 | UAGCAGCAAUAUUACGAUUA | -0.00343 ± 0.049 | -0.0327 ± 0.066
81 | UAGCAGCAAUAUUACGCAAC | -2.32 ± 0.16 | -2.24 ± 0.22
82 | UAGCAGCAAUAUUACGCCUG | -1.79 ± 0.11 | -0.602 ± 0.13
83 | UAGCAGCAAUAUUACGCGAG | -1.83 ± 0.097 | -0.971 ± 0.11
84 | UAGCAGCAAUAUUACGCGUA | -1.2 ± 0.1 | 0.478 ± 0.1
85 | UAGCAGCAAUAUUACGCGUC | -3.43 ± 0.2 | -2.87 ± 0.22
86 | UAGCAGCAAUAUUACGCUUG | -2.3 ± 0.18 | -0.988 ± 0.19
87 | UAGCAGCAAUAUUACGGCGG | -0.483 ± 0.084 | -0.353 ± 0.13
88 | UAGCAGCAAUAUUACGGCUC | -0.698 ± 0.094 | -0.839 ± 0.12
89 | UAGCAGCAAUAUUACGGGAC | -4.55 ± 0.31 | -2.75 ± 0.26
90 | UAGCAGCAAUAUUACGGGAG | -2.58 ± 0.099 | -2.11 ± 0.11
91 | UAGCAGCAAUAUUACGGUAU | -2.97 ± 0.092 | -2.41 ± 0.094
92 | UAGCAGCAAUAUUACGGUCG | 0.0447 ± 0.066 | 0.482 ± 0.094
93 | UAGCAGCAAUAUUACGGUCU | -1.22 ± 0.074 | -1.24 ± 0.086
94 | UAGCAGCAAUAUUACGGUUU | -0.986 ± 0.051 | -0.354 ± 0.067
95 | UAGCAGCAAUAUUACGUAAG | -1.91 ± 0.078 | -0.435 ± 0.091
96 | UAGCAGCAAUAUUACGUAGA | -2.62 ± 0.072 | -1.11 ± 0.079
